T1: CARD9 FL overexpressed in HEK 293T cells
T1 sequence (Q9H257 1-536, species assumed, looked up): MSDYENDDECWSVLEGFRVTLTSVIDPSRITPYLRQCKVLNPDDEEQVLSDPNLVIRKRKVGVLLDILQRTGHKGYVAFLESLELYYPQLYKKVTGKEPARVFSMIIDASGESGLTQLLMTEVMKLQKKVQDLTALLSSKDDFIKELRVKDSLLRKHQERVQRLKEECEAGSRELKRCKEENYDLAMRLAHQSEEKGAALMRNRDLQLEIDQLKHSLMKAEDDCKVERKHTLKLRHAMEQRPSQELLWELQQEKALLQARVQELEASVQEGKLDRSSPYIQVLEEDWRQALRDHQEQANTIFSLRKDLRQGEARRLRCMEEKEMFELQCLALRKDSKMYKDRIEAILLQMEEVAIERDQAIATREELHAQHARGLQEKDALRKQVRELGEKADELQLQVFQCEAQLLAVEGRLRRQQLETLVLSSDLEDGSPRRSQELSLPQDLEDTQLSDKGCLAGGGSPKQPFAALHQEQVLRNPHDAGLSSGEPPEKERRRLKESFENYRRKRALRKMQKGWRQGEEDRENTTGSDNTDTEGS

T2: CARD9 R101C overexpressed in HEK 293T cells
T2 sequence (Q9H257 1-536 with R101C, species assumed, looked up): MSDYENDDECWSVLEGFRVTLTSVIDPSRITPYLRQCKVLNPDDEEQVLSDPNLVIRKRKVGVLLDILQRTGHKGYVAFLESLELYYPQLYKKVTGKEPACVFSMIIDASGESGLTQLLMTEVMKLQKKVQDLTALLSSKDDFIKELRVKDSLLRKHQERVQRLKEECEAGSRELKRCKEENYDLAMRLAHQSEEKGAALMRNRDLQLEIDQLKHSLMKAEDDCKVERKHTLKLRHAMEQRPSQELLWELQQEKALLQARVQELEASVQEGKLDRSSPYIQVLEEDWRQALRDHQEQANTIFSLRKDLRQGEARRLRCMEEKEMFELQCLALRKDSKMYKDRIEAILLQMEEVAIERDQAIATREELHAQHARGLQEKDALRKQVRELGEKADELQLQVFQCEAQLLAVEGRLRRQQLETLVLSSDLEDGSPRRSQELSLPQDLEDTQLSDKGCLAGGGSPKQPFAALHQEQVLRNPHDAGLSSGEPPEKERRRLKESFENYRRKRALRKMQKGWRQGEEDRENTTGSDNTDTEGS

T3: CARD9 S104N overexpressed in HEK 293T cells
T3 sequence (Q9H257 1-536 with S104N, species assumed, looked up): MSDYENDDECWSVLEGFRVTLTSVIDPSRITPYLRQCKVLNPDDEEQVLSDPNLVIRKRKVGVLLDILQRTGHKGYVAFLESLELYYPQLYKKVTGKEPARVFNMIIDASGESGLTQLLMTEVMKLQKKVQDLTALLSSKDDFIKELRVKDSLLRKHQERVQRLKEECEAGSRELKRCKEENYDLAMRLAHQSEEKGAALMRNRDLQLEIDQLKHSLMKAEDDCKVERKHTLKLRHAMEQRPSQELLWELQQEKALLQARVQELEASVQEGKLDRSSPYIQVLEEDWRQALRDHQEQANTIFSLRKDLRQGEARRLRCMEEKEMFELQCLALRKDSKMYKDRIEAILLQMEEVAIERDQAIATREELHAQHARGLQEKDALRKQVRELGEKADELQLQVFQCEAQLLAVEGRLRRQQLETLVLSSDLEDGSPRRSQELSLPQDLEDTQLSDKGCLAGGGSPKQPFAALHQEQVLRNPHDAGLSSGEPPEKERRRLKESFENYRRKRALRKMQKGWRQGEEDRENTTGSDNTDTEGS

T4: CARD9 R101C (endogenous knock-in variant, in CARD9 R101C mouse BMDCs) (Mus musculus, UniProt A2AIV8 1-536)
T4 construct: CRISPR knock-in mouse; The protein stood in lysates of HKCA-stimulated BMDCs
T4 sequence: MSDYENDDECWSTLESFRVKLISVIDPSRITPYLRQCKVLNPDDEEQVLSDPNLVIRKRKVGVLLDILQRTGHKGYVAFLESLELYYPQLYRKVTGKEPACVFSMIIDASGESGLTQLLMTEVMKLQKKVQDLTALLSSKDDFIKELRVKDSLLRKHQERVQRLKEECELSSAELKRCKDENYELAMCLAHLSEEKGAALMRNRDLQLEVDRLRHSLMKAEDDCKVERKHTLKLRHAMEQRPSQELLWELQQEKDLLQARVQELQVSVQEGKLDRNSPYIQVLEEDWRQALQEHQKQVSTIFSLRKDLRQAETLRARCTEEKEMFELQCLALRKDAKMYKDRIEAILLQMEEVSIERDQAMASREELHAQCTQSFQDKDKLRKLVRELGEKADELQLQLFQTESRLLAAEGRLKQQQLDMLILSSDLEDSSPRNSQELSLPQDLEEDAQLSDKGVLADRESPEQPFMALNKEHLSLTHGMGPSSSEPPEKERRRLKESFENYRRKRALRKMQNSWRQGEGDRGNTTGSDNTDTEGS

T5: CARD9 (endogenous, in WT mouse BMDCs) (Mus musculus, UniProt A2AIV8 1-536)
T5 construct: Endogenous protein in lysates of HKCA-stimulated WT mouse BMDCs; also called WT CARD9
T5 sequence: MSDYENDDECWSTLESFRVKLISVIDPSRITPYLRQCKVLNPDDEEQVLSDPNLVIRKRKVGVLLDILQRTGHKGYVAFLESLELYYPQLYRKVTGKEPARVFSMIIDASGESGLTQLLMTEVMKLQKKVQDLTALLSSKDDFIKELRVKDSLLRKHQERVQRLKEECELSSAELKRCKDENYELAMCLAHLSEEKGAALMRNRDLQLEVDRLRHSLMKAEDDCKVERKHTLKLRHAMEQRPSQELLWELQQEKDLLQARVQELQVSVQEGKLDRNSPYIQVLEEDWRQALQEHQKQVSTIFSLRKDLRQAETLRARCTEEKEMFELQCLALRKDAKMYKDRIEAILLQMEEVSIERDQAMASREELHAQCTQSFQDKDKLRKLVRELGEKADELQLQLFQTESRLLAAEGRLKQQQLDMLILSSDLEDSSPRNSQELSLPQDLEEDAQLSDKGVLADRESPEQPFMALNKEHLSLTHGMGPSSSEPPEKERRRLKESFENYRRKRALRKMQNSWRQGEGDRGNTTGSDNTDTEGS


Tests used:
[1] = tested on: T1, CARD9 FL overexpressed in HEK 293T cells
[2] = tested on: T2, CARD9 R101C overexpressed in HEK 293T cells
[3] = tested on: T3, CARD9 S104N overexpressed in HEK 293T cells
[4] = biological target: T4, CARD9 R101C (endogenous knock-in …); assay: Bcl10 immunoprecipitation from HKCA-stimulated BMDCs, western blot
Protocol: (§1) Lysate was incubated for 30 min and centrifuged at 2000 rpm for 10 min at 4° C. 50 μl of the supernatant was collected as whole cell lysate (WCL) fraction. Remaining supernatant was collected and incubated overnight with 10 al/sample of CARD9 antibody (Cell Signaling Technology #12283S) at 4° C. while rotating. The next day, 50 μl of Dynabeads Protein G beads (Life Technologies #10004D) were added and incubated for 1 h rotating at 4° C. Immunoprecipitates were washed 3× with standard lysis buffer and resuspended in 25 μl of 2× Laemmli buffer (BioRad #1610737) supplemented with 5% R-mercaptoethanol followed by boiling for 10 min at 75° C. For Bcl10 IP to detect CBM complex formation, cell pellets were resuspended in lysis buffer (PBS, 0.5% NP-40) supplemented with 1× Halt Protease & Phosphatase Inhibitor Single-Use Cocktail and Pierce Universal Nuclease and kept on ice for 10 min. Lysate was centrifuged for 10 min at 2000 rpm at 4° C. 50 μl of the supernatant was collected as whole cell lysate (WCL) fraction. Remaining supernatant was incubated overnight with 200 al/sample of Bcl10 antibody (Santa Cruz Biotechnology #sc-5273) at 4° C. rotating. The next day, 50 μl of Dynabeads Protein G beads were added and incubated for 1 h rotating at 4° C. […]

[5] = biological target: T5, CARD9 (endogenous, in WT mouse BMDCs); assay: Bcl10 immunoprecipitation from HKCA-stimulated BMDCs, western blot for CARD9
Protocol: as §1

Molecule | in vitro phosphorylation assay (western blot) [1] | in vitro phosphorylation assay (western blot) [2] | in vitro phosphorylation assay (western blot) [3] | binding result [4] | binding result [5]
purified PKCδ (Promega PKCδ Kinase Enzyme System #V3401) | PKCd does indeed phosphorylate S104 | this phosphorylation requires an intact RXXS motif in the linker domain | this phosphorylation requires an intact RXXS motif in the linker domain |  | 
Bcl10 (endogenous, in mouse BMDCs) (other, UniProt Q9Z0H7 1-233, looked up) MEAPAPSLTEEDLTEVKKDALENLRVYLCEKIIAERHFDHLRAKKILSREDTEEISCRTSSRKRAGKLLDYLQENPRGLDTLVESIRREKTQSFLIQKITDEVLKLRNIKLEHLKGLKCSSCEPFAAGATNNLSRCNSDESNLSEKQRASTVMYHPEGESSTAPFFSMASSLNLPVLEVGRTENSSFSSATLPRPGDPGAPPLPPDLRLEEGGSCGNSSEMFLPLRSRALSRQ |  |  |  | no binding | binds

Source: patent publication US20260158139A1, “CARD9 VARIANT POLYPEPTIDE AND ANTIBODIES DIRECTED THERETO” (The Broad Institute, Inc., priority 2023, published 2026)
